This note sets out measurements from patent US20260049138A1 (Chugai, published 2026).

The test concerns the target T1, CD3ε homodimer protein (human, UniProt P07766 23-126, limits assumed, sulfo-tag or biotin label in the ECL assays; amine-coupled to the chip in SPR).
T1 construct: also called human CD3ε homodimer protein; CD3 (CD3ε)
Put plainly: SPR Biacore T200; CD3ε homodimer on CM4 chip.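 Note: Single-residue variant antibodies injected as analyte over CD3ε homodimer immobilized by amine coupling, run at 25 °C in HBS-EP+ buffer.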

T1 sequence (P07766 23-126 limits assumed): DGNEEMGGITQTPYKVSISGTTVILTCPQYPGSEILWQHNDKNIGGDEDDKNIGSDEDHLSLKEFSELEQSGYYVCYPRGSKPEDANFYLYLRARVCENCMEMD

B1: CE115HA000 D101H one-arm antibody (antibody, human IgG1, kappa, L234A L235A, N297A, name in Kabat numbering)
heavy: QVQLVESGGGVVQPGRSLRLSCAASGFTFSNAWMHWVRQAPGKGLEWVAQIKAKSNNYATYYAESVKGRFTISRDDSKNSLYLQMNSLKTEDTAVYYCRYVHYGAYYGVHAWGQGTTVTVSSASTKGPSVFPLAPSSKSTSGGTAALGCLVKDYFPEPVTVSWNSGALTSGVHTFPAVLQSSGLYSLSSVVTVPSSSLGTQTYICNVNHKPSNTKVDKKVEPKSCDKTHTCPPCPAPEAAGGPSVFLFPPKPKDTLMISRTPEVTCVVVDVSHEDPEVKFNWYVDGVEVHNAKTKPREEQYASTYRVVSVLTVLHQDWLNGKEYKCKVSNKALPAPIEKTISKAKGQPREPQVYTLPPSRCELTKNQVSLSCAVKGFYPSDIAVEWESNGQPENNYKTTPPVLDSDGSFFLVSKLTVDKSRWQQGNVFSCSVMHEALHNHYTQKSLSLSPDYKDDDDK
chain: EPKSSDKTHTCPPCPAPELLGGPSVFLFPPKPKDTLMISRTPEVTCVVVDVSHEDPEVKFNWYVDGVEVHNAKTKPREEQYNSTYRVVSVLTVLHQDWLNGKEYKCKVSNKALPAPIEKTISKAKGQPREPQVCTLPPSRDELTKNQVSLWCLVKGFYPSDIAVEWESNGQPENNYKTTPPVLDSDGSFFLYSKLTVDKSRWQQGNVFSCSVMHEALHNRYTQKSLSLSP
light: DIVMTQSPLSLPVTPGEPASISCRSSQSLVHSNRNTYLHWYQQKPGQAPRLLIYKVSNRFSGVPDRFSGSGSGTDFTLKISRVEAEDVGVYYCGQGTQVPYTFGQGTKLEIKRTVAAPSVFIFPPSDEQLKSGTASVVCLLNNFYPREAKVQWKVDNALQSGNSQESVTEQDSKDSTYSLSSTLTLSKADYEKHKVYACEVTHQGLSSPVTKSFNRGEC
Take B1: the “ratio of amounts bound Z=Y/X (altered form / CE115HA000)” value turned out to be 1.21.

B2: CE115HA000 D101M one-arm antibody (antibody, human IgG1, kappa, L234A L235A, N297A, name in Kabat numbering)
heavy: QVQLVESGGGVVQPGRSLRLSCAASGFTFSNAWMHWVRQAPGKGLEWVAQIKAKSNNYATYYAESVKGRFTISRDDSKNSLYLQMNSLKTEDTAVYYCRYVHYGAYYGVMAWGQGTTVTVSSASTKGPSVFPLAPSSKSTSGGTAALGCLVKDYFPEPVTVSWNSGALTSGVHTFPAVLQSSGLYSLSSVVTVPSSSLGTQTYICNVNHKPSNTKVDKKVEPKSCDKTHTCPPCPAPEAAGGPSVFLFPPKPKDTLMISRTPEVTCVVVDVSHEDPEVKFNWYVDGVEVHNAKTKPREEQYASTYRVVSVLTVLHQDWLNGKEYKCKVSNKALPAPIEKTISKAKGQPREPQVYTLPPSRCELTKNQVSLSCAVKGFYPSDIAVEWESNGQPENNYKTTPPVLDSDGSFFLVSKLTVDKSRWQQGNVFSCSVMHEALHNHYTQKSLSLSPDYKDDDDK
chain: EPKSSDKTHTCPPCPAPELLGGPSVFLFPPKPKDTLMISRTPEVTCVVVDVSHEDPEVKFNWYVDGVEVHNAKTKPREEQYNSTYRVVSVLTVLHQDWLNGKEYKCKVSNKALPAPIEKTISKAKGQPREPQVCTLPPSRDELTKNQVSLWCLVKGFYPSDIAVEWESNGQPENNYKTTPPVLDSDGSFFLYSKLTVDKSRWQQGNVFSCSVMHEALHNRYTQKSLSLSP
light: DIVMTQSPLSLPVTPGEPASISCRSSQSLVHSNRNTYLHWYQQKPGQAPRLLIYKVSNRFSGVPDRFSGSGSGTDFTLKISRVEAEDVGVYYCGQGTQVPYTFGQGTKLEIKRTVAAPSVFIFPPSDEQLKSGTASVVCLLNNFYPREAKVQWKVDNALQSGNSQESVTEQDSKDSTYSLSSTLTLSKADYEKHKVYACEVTHQGLSSPVTKSFNRGEC
In the case of B2, the “ratio of amounts bound Z=Y/X (altered form / CE115HA000)” value turned out to be 1.2.

B3: CE115HA000 D101N one-arm antibody (antibody, human IgG1, kappa, L234A L235A, N297A, name in Kabat numbering)
heavy: QVQLVESGGGVVQPGRSLRLSCAASGFTFSNAWMHWVRQAPGKGLEWVAQIKAKSNNYATYYAESVKGRFTISRDDSKNSLYLQMNSLKTEDTAVYYCRYVHYGAYYGVNAWGQGTTVTVSSASTKGPSVFPLAPSSKSTSGGTAALGCLVKDYFPEPVTVSWNSGALTSGVHTFPAVLQSSGLYSLSSVVTVPSSSLGTQTYICNVNHKPSNTKVDKKVEPKSCDKTHTCPPCPAPEAAGGPSVFLFPPKPKDTLMISRTPEVTCVVVDVSHEDPEVKFNWYVDGVEVHNAKTKPREEQYASTYRVVSVLTVLHQDWLNGKEYKCKVSNKALPAPIEKTISKAKGQPREPQVYTLPPSRCELTKNQVSLSCAVKGFYPSDIAVEWESNGQPENNYKTTPPVLDSDGSFFLVSKLTVDKSRWQQGNVFSCSVMHEALHNHYTQKSLSLSPDYKDDDDK
chain: EPKSSDKTHTCPPCPAPELLGGPSVFLFPPKPKDTLMISRTPEVTCVVVDVSHEDPEVKFNWYVDGVEVHNAKTKPREEQYNSTYRVVSVLTVLHQDWLNGKEYKCKVSNKALPAPIEKTISKAKGQPREPQVCTLPPSRDELTKNQVSLWCLVKGFYPSDIAVEWESNGQPENNYKTTPPVLDSDGSFFLYSKLTVDKSRWQQGNVFSCSVMHEALHNRYTQKSLSLSP
light: DIVMTQSPLSLPVTPGEPASISCRSSQSLVHSNRNTYLHWYQQKPGQAPRLLIYKVSNRFSGVPDRFSGSGSGTDFTLKISRVEAEDVGVYYCGQGTQVPYTFGQGTKLEIKRTVAAPSVFIFPPSDEQLKSGTASVVCLLNNFYPREAKVQWKVDNALQSGNSQESVTEQDSKDSTYSLSSTLTLSKADYEKHKVYACEVTHQGLSSPVTKSFNRGEC
Regarding B3, the “ratio of amounts bound Z=Y/X (altered form / CE115HA000)” value was found to be 2.02.

B4: CE115HA000 D101K one-arm antibody (antibody, human IgG1, kappa, L234A L235A, N297A, name in Kabat numbering)
heavy: QVQLVESGGGVVQPGRSLRLSCAASGFTFSNAWMHWVRQAPGKGLEWVAQIKAKSNNYATYYAESVKGRFTISRDDSKNSLYLQMNSLKTEDTAVYYCRYVHYGAYYGVKAWGQGTTVTVSSASTKGPSVFPLAPSSKSTSGGTAALGCLVKDYFPEPVTVSWNSGALTSGVHTFPAVLQSSGLYSLSSVVTVPSSSLGTQTYICNVNHKPSNTKVDKKVEPKSCDKTHTCPPCPAPEAAGGPSVFLFPPKPKDTLMISRTPEVTCVVVDVSHEDPEVKFNWYVDGVEVHNAKTKPREEQYASTYRVVSVLTVLHQDWLNGKEYKCKVSNKALPAPIEKTISKAKGQPREPQVYTLPPSRCELTKNQVSLSCAVKGFYPSDIAVEWESNGQPENNYKTTPPVLDSDGSFFLVSKLTVDKSRWQQGNVFSCSVMHEALHNHYTQKSLSLSPDYKDDDDK
chain: EPKSSDKTHTCPPCPAPELLGGPSVFLFPPKPKDTLMISRTPEVTCVVVDVSHEDPEVKFNWYVDGVEVHNAKTKPREEQYNSTYRVVSVLTVLHQDWLNGKEYKCKVSNKALPAPIEKTISKAKGQPREPQVCTLPPSRDELTKNQVSLWCLVKGFYPSDIAVEWESNGQPENNYKTTPPVLDSDGSFFLYSKLTVDKSRWQQGNVFSCSVMHEALHNRYTQKSLSLSP
light: DIVMTQSPLSLPVTPGEPASISCRSSQSLVHSNRNTYLHWYQQKPGQAPRLLIYKVSNRFSGVPDRFSGSGSGTDFTLKISRVEAEDVGVYYCGQGTQVPYTFGQGTKLEIKRTVAAPSVFIFPPSDEQLKSGTASVVCLLNNFYPREAKVQWKVDNALQSGNSQESVTEQDSKDSTYSLSSTLTLSKADYEKHKVYACEVTHQGLSSPVTKSFNRGEC
In the case of B4, the “ratio of amounts bound Z=Y/X (altered form / CE115HA000)” value stood at 0.63.

B5: CE115HA000 D101L one-arm antibody (antibody, human IgG1, kappa, L234A L235A, N297A, name in Kabat numbering)
heavy: QVQLVESGGGVVQPGRSLRLSCAASGFTFSNAWMHWVRQAPGKGLEWVAQIKAKSNNYATYYAESVKGRFTISRDDSKNSLYLQMNSLKTEDTAVYYCRYVHYGAYYGVLAWGQGTTVTVSSASTKGPSVFPLAPSSKSTSGGTAALGCLVKDYFPEPVTVSWNSGALTSGVHTFPAVLQSSGLYSLSSVVTVPSSSLGTQTYICNVNHKPSNTKVDKKVEPKSCDKTHTCPPCPAPEAAGGPSVFLFPPKPKDTLMISRTPEVTCVVVDVSHEDPEVKFNWYVDGVEVHNAKTKPREEQYASTYRVVSVLTVLHQDWLNGKEYKCKVSNKALPAPIEKTISKAKGQPREPQVYTLPPSRCELTKNQVSLSCAVKGFYPSDIAVEWESNGQPENNYKTTPPVLDSDGSFFLVSKLTVDKSRWQQGNVFSCSVMHEALHNHYTQKSLSLSPDYKDDDDK
chain: EPKSSDKTHTCPPCPAPELLGGPSVFLFPPKPKDTLMISRTPEVTCVVVDVSHEDPEVKFNWYVDGVEVHNAKTKPREEQYNSTYRVVSVLTVLHQDWLNGKEYKCKVSNKALPAPIEKTISKAKGQPREPQVCTLPPSRDELTKNQVSLWCLVKGFYPSDIAVEWESNGQPENNYKTTPPVLDSDGSFFLYSKLTVDKSRWQQGNVFSCSVMHEALHNRYTQKSLSLSP
light: DIVMTQSPLSLPVTPGEPASISCRSSQSLVHSNRNTYLHWYQQKPGQAPRLLIYKVSNRFSGVPDRFSGSGSGTDFTLKISRVEAEDVGVYYCGQGTQVPYTFGQGTKLEIKRTVAAPSVFIFPPSDEQLKSGTASVVCLLNNFYPREAKVQWKVDNALQSGNSQESVTEQDSKDSTYSLSSTLTLSKADYEKHKVYACEVTHQGLSSPVTKSFNRGEC
On to B5, for which the “ratio of amounts bound Z=Y/X (altered form / CE115HA000)” value came to 0.62.

B6: CE115HA000 D101I one-arm antibody (antibody, human IgG1, kappa, L234A L235A, N297A, name in Kabat numbering)
heavy: QVQLVESGGGVVQPGRSLRLSCAASGFTFSNAWMHWVRQAPGKGLEWVAQIKAKSNNYATYYAESVKGRFTISRDDSKNSLYLQMNSLKTEDTAVYYCRYVHYGAYYGVIAWGQGTTVTVSSASTKGPSVFPLAPSSKSTSGGTAALGCLVKDYFPEPVTVSWNSGALTSGVHTFPAVLQSSGLYSLSSVVTVPSSSLGTQTYICNVNHKPSNTKVDKKVEPKSCDKTHTCPPCPAPEAAGGPSVFLFPPKPKDTLMISRTPEVTCVVVDVSHEDPEVKFNWYVDGVEVHNAKTKPREEQYASTYRVVSVLTVLHQDWLNGKEYKCKVSNKALPAPIEKTISKAKGQPREPQVYTLPPSRCELTKNQVSLSCAVKGFYPSDIAVEWESNGQPENNYKTTPPVLDSDGSFFLVSKLTVDKSRWQQGNVFSCSVMHEALHNHYTQKSLSLSPDYKDDDDK
chain: EPKSSDKTHTCPPCPAPELLGGPSVFLFPPKPKDTLMISRTPEVTCVVVDVSHEDPEVKFNWYVDGVEVHNAKTKPREEQYNSTYRVVSVLTVLHQDWLNGKEYKCKVSNKALPAPIEKTISKAKGQPREPQVCTLPPSRDELTKNQVSLWCLVKGFYPSDIAVEWESNGQPENNYKTTPPVLDSDGSFFLYSKLTVDKSRWQQGNVFSCSVMHEALHNRYTQKSLSLSP
light: DIVMTQSPLSLPVTPGEPASISCRSSQSLVHSNRNTYLHWYQQKPGQAPRLLIYKVSNRFSGVPDRFSGSGSGTDFTLKISRVEAEDVGVYYCGQGTQVPYTFGQGTKLEIKRTVAAPSVFIFPPSDEQLKSGTASVVCLLNNFYPREAKVQWKVDNALQSGNSQESVTEQDSKDSTYSLSSTLTLSKADYEKHKVYACEVTHQGLSSPVTKSFNRGEC
For the molecule B6, the “ratio of amounts bound Z=Y/X (altered form / CE115HA000)” value is 1.18.
